The target of assay [1] is Human Factor XIa (human) (UniProt P03951). The experiment in a line: inhibition of FXIa, chromogenic substrate, fit for tight-binding inhibitors (apparent Ki*).
For assay [2], the target named is Human plasma kallikrein (human) (UniProt P03952).
The target of assay [3] is tissue factor-Factor VIIa (human) (UniProt P13726).
The target of assay [4] is Human Factor XIa (human) (UniProt P03951).
Assay [5] shares this target. The source holds these as a separate data set.
In assay [6] the target is Human plasma kallikrein (human) (UniProt P03952). The experiment in a line: inhibition of human plasma kallikrein, substrate S2302, fit for tight-binding inhibitors (apparent Ki*).

Consider “APPI (Alzheimer's amyloid β-protein precursor inhibitor)”, for which the results for the Ki (with Human Factor XIa (human) [1]; in assay [6]) were 0.0027 µM and 0.34 µM, respectively. The fraction of remaining proteolytic activity with 100 nM inhibitor (fraction of uninhibited rate) came out at 0.81 in assay [2], 0.6 in assay [3] and 0.03 with Human Factor XIa (human) [4]. For the same substance, the fold prolongation of the clotting time of normal human plasma, APTT assay in the assay with Human Factor XIa (human) [5] stood at 2.8 fold.

Values taken from patent US5786328.
